# Experimental data as given in the supplement of paper PMC10567573.
# B1: ZNF449 (parent)
# chain: YRHQRLHTGERPYECTVCKKRFTR
# B2: C8orf76 (parent)
# chain: LYLQLAICSSLQNLEKTIFCLQKL
# Variants of: B1
# Assay: protein stability index of a GFP-peptide fusion (GPS, HEK-293T) (PSI 1-6); higher = more stable
# Conditions: c terminus: a fixed tail appended
# 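Note: lentivirally expressed fusions sorted by FACS into six bins by GFP to DsRed ratio, PSI derived from sequencing read proportions per bin multiplied by bin number.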
row,Variant,protein stability index
1,T16D,2.52
2,T16E,2.25
3,T16F,2.14
4,T16G,2.33
5,T16H,2.24
6,T16I,2.34
7,T16K,2.78
8,T16L,2.08
9,T16M,1.98
10,T16N,2.46
11,T16P,2.22
12,T16Q,2.27
13,T16R,2.51
14,T16S,2.39
15,T16V,2.07
16,T16W,2.03
17,T16Y,2.75
18,V17A,2.48
19,V17C,2.65
20,V17D,3.07
21,V17E,2.37
22,V17F,2.37
23,V17G,2.63
24,V17H,2.64
25,V17I,2.25

row,Variant,protein stability index
1,V17K,3.69
2,V17L,2.56
3,V17M,2.21
4,V17N,2.87
5,V17P,3.17
6,V17Q,2.47
7,V17R,2.55
8,V17S,2.5
9,V17T,2.85
10,V17W,2.28
11,V17Y,2.2
12,C18A,3.39
13,C18D,3.24
14,C18E,3.48
15,C18F,2.38
16,C18G,3.37
17,C18H,3.48
18,C18I,3.15
19,C18K,3.77
20,C18L,2.6
21,C18M,2.56
22,C18N,3.43
23,C18P,3.45
24,C18Q,3.27
25,C18R,3.65

row,Variant,protein stability index
1,C18S,3.38
2,C18T,3.6
3,C18V,3.48
4,C18W,2.21
5,C18Y,2.96
6,K19A,2.68
7,K19C,2.12
8,K19D,1.96
9,K19E,2.01
10,K19F,2.33
11,K19G,2.15
12,K19H,1.55
13,K19I,2.58
14,K19L,2.2
15,K19M,2.12
16,K19N,2.19
17,K19P,2.69
18,K19Q,2.57
19,K19R,2.34
20,K19S,1.74
21,K19T,2.77
22,K19V,2.3
23,K19W,2.07
24,K19Y,1.95
25,K20A,1.95

row,Variant,protein stability index
1,K20C,2.2
2,K20D,1.89
3,K20E,2.1
4,K20F,2.15
5,K20G,2.36
6,K20H,2.17
7,K20I,2.26
8,K20L,1.73
9,K20M,2.25
10,K20N,2.1
11,K20P,2.69
12,K20Q,2.29
13,K20R,1.9
14,K20S,2.08
15,K20T,2.03
16,K20V,2.3
17,K20W,1.61
18,K20Y,2.46
19,R21A,2.06
20,R21C,2.01
21,R21D,2.46
22,R21E,2.39
23,R21F,2.1
24,R21G,1.96
25,R21H,2.56

row,Variant,protein stability index
1,R21I,1.9
2,R21K,2.15
3,R21L,2.02
4,R21M,1.89
5,R21N,1.93
6,R21P,2.46
7,R21Q,1.98
8,R21S,1.65
9,R21T,1.92
10,R21V,2
11,R21W,2.18
12,R21Y,2.49
13,F22A,2.93
14,F22C,3.46
15,F22D,2.94
16,F22E,3.23
17,F22G,2.27
18,F22H,3.21
19,F22I,2.76
20,F22K,2.79
21,F22L,2.87
22,F22M,2.48
23,F22N,3.09
24,F22P,2.98
25,F22Q,2.66

row,Variant,protein stability index
1,F22R,3.19
2,F22S,3.06
3,F22T,2.41
4,F22V,2.52
5,F22W,2.3
6,F22Y,2.84
7,T23A,2.93
8,T23C,2.7
9,T23D,2.21
10,T23E,2.67
11,T23F,2.62
12,T23G,2.41
13,T23H,2.78
14,T23I,2.76
15,T23K,2.54
16,T23L,2.71
17,T23M,2.85
18,T23N,2.28
19,T23P,2.45
20,T23Q,2.16
21,T23R,2.85
22,T23S,2.09
23,T23V,2.36
24,T23W,2.13
25,T23Y,2.78

row,Variant,protein stability index
1,R24A,2.35
2,R24C,2.65
3,R24D,2.6
4,R24E,2.78
5,R24F,2.57
6,R24G,2.44
7,R24H,2.11
8,R24I,2.14
9,R24K,3.32
10,R24L,2.39
11,R24M,2.68
12,R24N,2.47
13,R24P,2.75
14,R24Q,2.31
15,R24S,2.3
16,R24T,2.26
17,R24V,2.51
18,R24W,1.87
19,R24Y,2.1

# Variants of: B2
# Assay: as above
# Conditions: c terminus: a fixed tail appended
row,Variant,protein stability index
1,Q4R,4.03
2,S9G,3.03
3,S10T,2.38
4,I18M,1.11
5,Y2V,3.11
6,C8L,2.92
7,T17W,4.22
8,Y2D,1.07
9,L5W,2.82
10,L5F,3.72
11,L24W,2.79
12,Q22W,1.93
13,L5C,1.79
14,Y2N,2.69
15,A6I,2.16
16,I7G,3.86
17,A6N,2.71
18,S10A,2.36
19,L24C,3.89
20,L24Q,3.56
21,S9I,2.34
22,Q4A,1.92
23,E15P,3.75
24,Q4C,5.01

row,Variant,protein stability index
1,S10K,2.11
2,T17Q,3.45
3,Y2C,1.42
4,C20F,2.83
5,Q22C,2.56
6,I7S,1.26
7,L3D,2.73
8,T17H,2.34
9,Q4V,3.48
10,C8N,3.14
11,A6R,3.17
12,C8H,2.52
13,L14N,2.84
14,L11P,5.02
15,L5K,1.36
16,T17G,4.96
17,I18K,2.22
18,L3N,1.34
19,N13M,3.43
20,L5V,2.05
21,C8M,4.39
22,E15C,2.82
23,C20G,3.1
24,I18P,4.2

row,Variant,protein stability index
1,I7N,2.23
2,E15F,4.35
3,L21H,2.76
4,Q4E,1.65
5,L1T,2.99
6,S9K,1.75
7,C20T,2.13
8,A6H,4.38
9,S10V,3.44
10,K23F,2.92
11,Q22P,2.69
12,S9W,1.02
13,N13A,2.98
14,L1E,3.38
15,L1P,3.08
16,Q22K,3.39
17,S9M,4.15
18,K23D,2.02
19,L3T,4.08
20,Q4D,2.74
21,K16Q,3.17
22,I18N,5.27
23,L24S,1.49
24,L14A,2.33

row,Variant,protein stability index
1,L3V,3.09
2,C8P,2.57
3,I7M,2.24
4,K23N,2.11
5,E15T,1.99
6,L21F,3.62
7,N13S,3.71
8,L21G,3.2
9,L24F,3.39
10,L5A,1.65
11,Q4I,2.44
12,N13I,1.93
13,E15M,3.11
14,L5E,1.79
15,L11Q,2.35
16,S10N,3.36
17,L24K,3.43
18,I7Y,3.21
19,T17N,2.46
20,C20A,2.85
21,L14K,2.9
22,T17V,2.84
23,Q22F,3.5
24,L1D,4.64

row,Variant,protein stability index
1,Q4T,2.97
2,T17P,1.98
3,Q12M,3.9
4,S9D,2.72
5,T17C,2.55
6,C20K,2.36
7,T17F,3.63
8,L5G,3.09
9,L3S,3.2
10,N13C,2.25
11,L11I,2.28
12,L14D,3.85
13,L14E,1.9
14,Q22T,3.32
15,K23M,1.58
16,S9V,3.45
17,Q12W,3.78
18,K16Y,2.26
19,C20Y,2.18
20,L24E,1.75
21,L21A,2.77
22,L14H,2.93
23,L5N,3.62
24,S9A,3.6

row,Variant,protein stability index
1,F19W,2.24
2,L11E,4.55
3,L24I,2.35
4,L1I,2.57
5,Q22D,2.46
6,F19V,2
7,L11D,2.17
8,L24D,4.2
9,T17M,3.56
10,C8G,3.48
11,F19I,2.8
12,Q12A,2.38
13,L11W,1.77
14,Q12E,2.29
15,S10L,2.99
16,Y2P,1.62
17,K23S,1.89
18,Q4K,2.11
19,K16P,2.32
20,L5T,2.24
21,K16S,2.67
22,Y2S,2.26
23,C8I,1.69
24,L21Y,3.14

row,Variant,protein stability index
1,K23Y,3.53
2,E15D,1.75
3,L3C,4.32
4,L11C,1.8
5,N13D,3.49
6,F19T,1.71
7,S9N,4.23
8,E15R,2.63
9,C20R,3.09
10,L21E,1.42
11,C20D,2.93
12,K16N,2.47
13,L21P,3.85
14,C8F,1.94
15,K23T,2.15
16,L14M,2.22
17,E15V,3.25
18,Q4F,2.22
19,Q12H,3.42
20,I18W,3.03
21,Y2H,3.59
